The values below come from patent US20030129638A1, “Reagents for antagonizing the protein-protein interaction between Raf-1 and apoptosis signal-regulating kinase and uses therefor” (priority 2001, published 2003).

Test [1] concerns ASK1-induced apoptosis in HeLa cells. Briefly: β-gal cell morphology-based apoptosis assay: effect of MEK inhibition on Raf-1 inhibition of ASK1-induced cell death. Set-up: species or system human. The note with it: PD98059 60 μM for 18 h. On the procedure: FIG. 2B is a graphic summary of the effect of MEK inhibition by PD98059 on Raf-1 function. Six hours after transfection as in A, HeLa cells were treated with PD98059 (60 μM) or vehicle (DMSO) for 18 h before being stained with 5-bromo-4-chloro-3-indolyl-D-galactopyranoside and scored for apoptosis in a blind fashion. Specific apoptosis is derived by subtracting the level of apoptosis seen in pcDNA3-transfected cells. At least 500 cells were scored for each sample. Results shown are representative of three independent experiments.
For the nuclear morphology assays (Zhang et al. (1999) Proc. Natl. Acad. Sci. USA 96:8511-8515), 2×10^5 HeLa cells were cultured in 35-mm dishes containing glass coverslips. […] Twenty-four hours later, cells on the glass coverslips were washed, fixed (0.5% glutaraldehyde/2% formaldehyde in PBS), stained with 4′,6-diamidino-2-phenylindole (DAPI) in Vectashield mounting medium (Vector Laboratories), and visualized by using a fluorescence microscope as described (Zhang et al. (1999) Proc. Natl. Acad. Sci. USA, 96:8511-8515). Transfected cells with fragmented nuclei were scored for apoptosis in a blind fashion. […] Twenty-four hours after transfection, cells were fixed, stained with 5-bromo-4-chloro-3-indolyl-β-D-galactopyranoside, and scored for apoptosis as described (Chang et al. (1998) Science 281:1860-1863). […]

The test system of a further test is ERK1/2 activation. Briefly: Western blot of ERK1/2 activation in HeLa cell lysates. It counts as cell-based, human. The note with it: HeLa cells, 60 μM. On the procedure: Cell lysates from HeLa cells treated with 60 μM PD98059 or vehicle were probed by Western blotting with either an ERK1/2 activation-specific antibody (Upper; Cell Signaling Technology) or pan-ERK1/2 antibody (Lower; Cell Signaling Technology).
To test the hypothesis that Raf-1 regulates ASK1-induced apoptosis through the MEK-ERK pathway, we used two widely used MEK antagonists, PD98059 and U0126 (Dudley et al. (1995) Proc. Natl. Acad. Sci. USA 92:7686-7689; Favata et al. (1998) J. Biol. Chem. 273:18623-18632). […] To confirm the observations with PD98059 and U0126, we used a dominant negative mutant of MEK1, MEK1dn, to interfere with MEK signaling (Sugimoto et al. (1998) EMBO J. 17:1717-1727).
Background: A western blot detects proteins with antibodies after separation by electrophoresis.

Test [2] has as its target T1, protein-protein interaction between Raf-1 and ASK1 (Homo sapiens, UniProt P04049).
T1 construct: expressed in transfected cells; host or cells: COS7
Put plainly: Coimmunoprecipitation with anti-Raf-1 antibody and Western blot for ASK1 in transfectants expressing ASK1 N-terminal domain fusion peptides. It counts as cell-based. Conditions: fusion peptide expressed in cells, FIG. 7. On the procedure:
FIG. 7 is a Western blot analysis of Raf-1 immunoprecipitates obtained from transfectants comprising N-terminal domain truncation peptides.
(§1) Forty-eight hours after transfection, 4×10^5 COS7 cells were lysed in 300 μl of lysis buffer (0.2% Nonidet P-40/10 mM Hepes, pH 7.4/150 mM NaCl/5 mM NaF/2 mM Na3VO4/5 mM Na4P2O7/10 μg/ml aprotonin/10 μg/ml leupeptin/1 mM phenylmethylsulfonyl fluoride). Cell extracts were clarified by centrifugation and used for immunoprecipitation with various antibodies and protein G-Sepharose (Amersham Pharmacia). Immunocomplexes were washed four times with lysis buffer containing 1% Nonidet P-40 or RIPA buffer (1% Nonidet P-40/0.5% sodium deoxycholate/0.1% SDS/137 mM NaCl/20 mM Tris.HCl, pH 7.5) and resolved on SDS/PAGE (12.5%) for Western blotting. The enzyme-linked immunoblotting procedures were performed essentially as described (Zhang et al. (1999) Proc. Natl. Acad. Sci. USA 96:8511-8515). Corresponding secondary antibodies were used against each primary antibody: horseradish peroxidase-conjugated goat anti-mouse IgG for monoclonal antibodies and horseradish peroxidase-conjugated goat anti-rabbit IgG for polyclonal antibodies (Santa Cruz Biotechnology). Cross-reacting materials were visualized by using the ECL detection reagents (Amersham Pharmacia).
Coimmunoprecipitation experiments were performed using anti-Raf-1 antibody (RI9120, Transduction Laboratories) as described. […] Raf-1 immunoprecipitates were analyzed with antibodies specific for ASK1 and Raf-1 (upper panel). HA-ASK1 protein present in Raf-1 immunoprecipitates was probed with anti-ASK1 antibody H-300 (1:2000, Santa Cruz;). […] The effect of this disruption is manifested as the absence of ASK1 protein in the Raf-1 immunoprecipitates.

Test [3] deals with Raf-1 prosurvival effects on ASK1-induced cell death in COS7 cells. Put plainly: DNA content-based flow cytometric apoptosis assay (sub-G0 fraction) in transfected COS7 cells. It counts as cell-based. The note with it: COS7 cells cotransfected with HA-ASK1, Flag-Raf-1 and ASK1 truncation construct (0.3 μg), FIG. 8. The method, then: FIG. 8 provides a graphic representation of data obtained from a DNA content-based flow cytometric apoptosis assay. The fraction of transfected cells with sub-G0 DNA content in each sample was quantified. The data presented are representative of three independent experiments.
The DNA content-based apoptosis assay was performed with a fluorescence-activated cell sorter as described (Spector et al. (1997) Cells: A Laboratory Manual (Cold Spring Harbor Lab. Press, Plainview, N.Y.). Briefly, COS7 cells (2×10^5) were cotransfected with pEGFP-F (0.4 μg; CLONTECH) encoding a farnesylated eGFP and test plasmids (1.6 μg total). Twenty-four hours after transfection, total cells were trypsinized, resuspended in PBS, fixed in ice-cold ethanol followed by overnight incubation, treated with RNase A (Sigma-Aldrich), and stained with propidium iodide (Sigma-Aldrich). Samples were analyzed with a FACSort flow cytometer (Becton Dickinson). The DNA content of transfected cells was determined by using WINMDI 2.8 software (Trotter, Scripps Research Institute, La Jolla, Calif.).
A DNA content-based flow cytometric apoptosis assay was performed to evaluate the effects of the ASK1 N-terminal domain truncation peptides on the prosurvival effects of Raf-1. COS7 cells were transfected with indicated plasmids encoding HA-ASK1 (1.0 μg), Flag-Raf-1 (0.3 μg) or ASK1 truncation constructs (0.3 μg) as indicated along with an EGFP-F expression vector (0.4 μg) as described.
On the technique in general: A flow cytometer gives signals particle by particle.

For another test, the target named is Raf-1 (Homo sapiens, UniProt P04049). Briefly: Association of ASK1 N-terminal domain truncation peptides with Raf-1. It counts as binding. Conditions: N-terminal domain fusion peptide. On the procedure: FIG. 6A provides a schematic representation of the ASK1 N-terminal domain truncation proteins used herein. Association of ASK1 mutants with Raf-1 is summarized. Positive interaction is represented by (+).
as §1
FIG. 6A provides a schematic representation of the ASK1 N-terminal domain truncation peptides used herein. Various truncation mutants of the ASK1 N-terminal domain were generated as shown and expressed as fusion proteins with a (His)6-tag at the N-terminus and an HA-tag at the C-terminus, except ASK-N69-163 which has the N-terminal (His)6-tag but a GST-tag at the C-terminus. Association of ASK1 mutants with Raf-1 is summarized. Positive interaction is represented by (+).

`COc1cccc(-c2cc(=O)c3ccccc3o2)c1N` [PD98059]: the “Effect on the ability of Raf-1 to inhibit ASK1-induced cell death” value in test [1] is “did not decrease the ability of Raf-1 to inhibit ASK1-induced cell death”. The “Activation of ERK1/2” value in the test on ERK1/2 activation is “diminished the activation of ERK1/2”.

B1: SEQ ID NO:8: amino acid residues 69 to 230 of the full-length human ASK1 sequence set forth in SEQ ID NO:1 (protein, UniProt Q99683 69-230, looked up, fragment)
chain: AATSSSSATRGRGSSVGGGSRRTTVAYVINEASQGQLVVAESEALQSLREACETVGATLETLHFGKLDFGETTVLDRFYNADIAVVEMSDAFRQPSLFYHLGVRESFSMANNIILYCDTNSDSLQSLKEIICQKNTMCTGNYTFVPYMITPHNKVYCCDSSF
B1: the “Disruption of the Raf-1/ASK1 interaction (ASK1 in Raf-1 immunoprecipitates)” value (from here on “Disruption of the Raf-1/ASK1 interaction”) in test [2] is “disrupts the protein-protein interaction between Raf-1 and ASK1”. Moreover, the “Effect on Raf-1 prosurvival effects on ASK1-induced cell death” value (shortened to “Effect on Raf-1 prosurvival effects”) in test [3] is reported as “eliminates Raf-1 prosurvival effects on ASK1-induced cell death”. For the same molecule, in the test with Raf-1, the “Binding to Raf-1” value was “ability to bind Raf-1”.

B2: SEQ ID NO:3: amino acid residues 6 to 230 of full-length human ASK1 (SEQ ID NO:1), expressed as a (His)6/HA-tagged fusion peptide (protein, UniProt Q99683 6-230, looked up, fragment)
chain: DEGITFSVPPFAPSGFCTIPEGGICRRGGAAAVGEGEEHQLPPPPPGSFWNVESAAAPGIGCPAATSSSSATRGRGSSVGGGSRRTTVAYVINEASQGQLVVAESEALQSLREACETVGATLETLHFGKLDFGETTVLDRFYNADIAVVEMSDAFRQPSLFYHLGVRESFSMANNIILYCDTNSDSLQSLKEIICQKNTMCTGNYTFVPYMITPHNKVYCCDSSF
modifications: His6/HA tag
For B2, the “Disruption of the Raf-1/ASK1 interaction” value in test [2] was “disrupts the protein-protein interaction between Raf-1 and ASK1”. Further, in test [3], the “Effect on Raf-1 prosurvival effects” value is “eliminates Raf-1 prosurvival effects on ASK1-induced cell death”. Also, the “Binding to Raf-1” value in the test with Raf-1 is listed as “ability to bind Raf-1”.

B3: SEQ ID NO:7: amino acid residues 6 to 163 of the full-length human ASK1 sequence set forth in SEQ ID NO:1 (protein, UniProt Q99683 6-163, looked up, fragment)
chain: DEGITFSVPPFAPSGFCTIPEGGICRRGGAAAVGEGEEHQLPPPPPGSFWNVESAAAPGIGCPAATSSSSATRGRGSSVGGGSRRTTVAYVINEASQGQLVVAESEALQSLREACETVGATLETLHFGKLDFGETTVLDRFYNADIAVVEMSDAFRQP
For the molecule B3, the “Disruption of the Raf-1/ASK1 interaction” value in test [2] was “disrupts the protein-protein interaction between Raf-1 and ASK1”. Moreover, the “Effect on Raf-1 prosurvival effects” value in test [3] is “eliminates Raf-1 prosurvival effects on ASK1-induced cell death”. Also, in the test with Raf-1, the “Binding to Raf-1” value is given as “ability to bind Raf-1”.
